Assays:
[1] = molecular target: low density lipoprotein receptor-related protein 1 (LRP1), full-length (UniProt Q07954)
[2] = molecular target: low density lipoprotein receptor-related protein 1 (LRP1), full-length (UniProt Q07954); remark: listed apart in the source
[3] = molecular target: T1, catalytic domain of MMP-3 (MMP-3ΔC) (UniProt P08254 100-272); assay: enzyme inhibition under equilibrium conditions (Ki(app), tight binding equation); apparent; metalloproteinase (0.5-1 nM) preincubated with wild-type or mutant TIMP-3 (0.25-25 nM) 1 h at 37 °C, residual activity on fluorescence-quenched substrates; 50 mM Tris-HCl pH 7.5, 150 mM NaCl, 10 mM CaCl2, 0.05% Brij 35, 0.02% NaN3; settings: both partners purified
T1 construct: MMP-3, catalytic domain

[4] = molecular target: T2, catalytic domain of MMP-2 (MMP-2ΔC) (UniProt P08253 110-444); assay: as above; settings: both partners purified
T2 construct: MMP-2, catalytic domain

[5] = molecular target: T3, ADAMTS-5 lacking the C-terminal thrombospondin domain (UniProt Q9UNA0 262-874); assay: as above; settings: both partners purified
T3 construct: ADAMTS-5 without its C-terminal thrombospondin domain
T3 sequence (looked up): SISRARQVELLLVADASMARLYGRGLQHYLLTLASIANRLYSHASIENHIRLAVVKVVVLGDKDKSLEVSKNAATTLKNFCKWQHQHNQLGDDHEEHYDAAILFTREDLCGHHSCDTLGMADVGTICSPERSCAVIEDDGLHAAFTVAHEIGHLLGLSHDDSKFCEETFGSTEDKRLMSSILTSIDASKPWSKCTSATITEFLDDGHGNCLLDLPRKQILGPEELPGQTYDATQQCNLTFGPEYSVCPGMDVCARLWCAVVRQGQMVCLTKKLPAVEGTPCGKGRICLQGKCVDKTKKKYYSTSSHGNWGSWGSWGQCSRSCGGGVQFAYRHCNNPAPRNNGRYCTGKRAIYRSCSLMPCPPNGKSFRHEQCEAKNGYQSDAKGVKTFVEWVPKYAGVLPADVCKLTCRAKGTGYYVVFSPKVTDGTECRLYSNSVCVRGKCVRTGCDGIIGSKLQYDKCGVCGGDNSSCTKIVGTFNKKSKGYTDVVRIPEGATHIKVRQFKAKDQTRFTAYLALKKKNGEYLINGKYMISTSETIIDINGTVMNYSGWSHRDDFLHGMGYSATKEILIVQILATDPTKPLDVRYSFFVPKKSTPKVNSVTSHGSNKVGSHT

[6] = molecular target: T4, catalytic domain of MMP-1 (MMP-1ΔC) (UniProt P03956 100-269); assay: as above; settings: both partners purified
T4 construct: MMP-1, catalytic domain
T4 sequence (looked up): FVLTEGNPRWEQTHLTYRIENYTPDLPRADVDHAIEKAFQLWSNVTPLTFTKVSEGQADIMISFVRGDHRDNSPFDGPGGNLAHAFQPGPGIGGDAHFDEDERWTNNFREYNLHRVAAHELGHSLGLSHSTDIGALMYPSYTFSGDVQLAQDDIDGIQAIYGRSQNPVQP

[7] = molecular target: T5, ADAMTS-4 lacking the C-terminal spacer domain (UniProt O75173 213-685); assay: as above; settings: both partners purified
T5 construct: ADAMTS-4 without its C-terminal spacer domain
T5 sequence (looked up): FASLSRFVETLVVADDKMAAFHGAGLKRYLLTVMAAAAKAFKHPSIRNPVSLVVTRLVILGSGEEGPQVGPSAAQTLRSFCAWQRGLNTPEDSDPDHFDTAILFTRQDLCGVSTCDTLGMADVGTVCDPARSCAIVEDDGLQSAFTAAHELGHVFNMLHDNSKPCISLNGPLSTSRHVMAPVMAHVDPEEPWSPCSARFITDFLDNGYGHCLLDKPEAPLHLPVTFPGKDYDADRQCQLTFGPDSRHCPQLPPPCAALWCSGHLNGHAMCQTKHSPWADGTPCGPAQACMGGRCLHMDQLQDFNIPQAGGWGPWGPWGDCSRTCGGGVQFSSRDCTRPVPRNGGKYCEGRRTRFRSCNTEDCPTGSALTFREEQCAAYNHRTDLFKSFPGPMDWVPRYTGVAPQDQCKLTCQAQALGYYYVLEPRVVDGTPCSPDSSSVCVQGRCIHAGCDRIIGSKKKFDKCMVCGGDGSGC

ADAM17 ectodomain = molecular target: T6, ADAM17 ectodomain (UniProt P78536 215-671); assay: enzyme inhibition under equilibrium conditions (Ki(app), tight binding equation); apparent; ADAM17 preincubated with wild-type or mutant TIMP-3 (0.25-25 nM) 1 h at 37 °C, residual activity on a fluorescence-quenched substrate; 50 mM Tris-HCl pH 7.5, 25 mM NaCl, 10 mM CaCl2, 0.05% Brij 35, 0.02% NaN3; settings: both partners purified
T6 construct: ADAM17, ectodomain; source: gift from Professor Gillian Murphy (University of Cambridge)
T6 sequence (P78536 215-671): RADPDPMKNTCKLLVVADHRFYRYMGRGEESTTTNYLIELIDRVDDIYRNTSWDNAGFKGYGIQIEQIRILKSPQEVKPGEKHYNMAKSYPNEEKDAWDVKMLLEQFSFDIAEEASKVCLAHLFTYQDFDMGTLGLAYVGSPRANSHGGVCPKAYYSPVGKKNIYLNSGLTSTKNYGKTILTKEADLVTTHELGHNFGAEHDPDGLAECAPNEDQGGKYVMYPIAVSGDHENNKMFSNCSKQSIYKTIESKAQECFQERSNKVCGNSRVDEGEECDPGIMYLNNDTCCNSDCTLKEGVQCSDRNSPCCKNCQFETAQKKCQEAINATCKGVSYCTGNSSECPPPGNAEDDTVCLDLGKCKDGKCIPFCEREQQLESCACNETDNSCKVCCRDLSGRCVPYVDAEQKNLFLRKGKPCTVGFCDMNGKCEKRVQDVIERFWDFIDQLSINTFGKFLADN

Sequence of low density lipoprotein receptor-related protein 1 (LRP1), full-length (Q07954 20-4544): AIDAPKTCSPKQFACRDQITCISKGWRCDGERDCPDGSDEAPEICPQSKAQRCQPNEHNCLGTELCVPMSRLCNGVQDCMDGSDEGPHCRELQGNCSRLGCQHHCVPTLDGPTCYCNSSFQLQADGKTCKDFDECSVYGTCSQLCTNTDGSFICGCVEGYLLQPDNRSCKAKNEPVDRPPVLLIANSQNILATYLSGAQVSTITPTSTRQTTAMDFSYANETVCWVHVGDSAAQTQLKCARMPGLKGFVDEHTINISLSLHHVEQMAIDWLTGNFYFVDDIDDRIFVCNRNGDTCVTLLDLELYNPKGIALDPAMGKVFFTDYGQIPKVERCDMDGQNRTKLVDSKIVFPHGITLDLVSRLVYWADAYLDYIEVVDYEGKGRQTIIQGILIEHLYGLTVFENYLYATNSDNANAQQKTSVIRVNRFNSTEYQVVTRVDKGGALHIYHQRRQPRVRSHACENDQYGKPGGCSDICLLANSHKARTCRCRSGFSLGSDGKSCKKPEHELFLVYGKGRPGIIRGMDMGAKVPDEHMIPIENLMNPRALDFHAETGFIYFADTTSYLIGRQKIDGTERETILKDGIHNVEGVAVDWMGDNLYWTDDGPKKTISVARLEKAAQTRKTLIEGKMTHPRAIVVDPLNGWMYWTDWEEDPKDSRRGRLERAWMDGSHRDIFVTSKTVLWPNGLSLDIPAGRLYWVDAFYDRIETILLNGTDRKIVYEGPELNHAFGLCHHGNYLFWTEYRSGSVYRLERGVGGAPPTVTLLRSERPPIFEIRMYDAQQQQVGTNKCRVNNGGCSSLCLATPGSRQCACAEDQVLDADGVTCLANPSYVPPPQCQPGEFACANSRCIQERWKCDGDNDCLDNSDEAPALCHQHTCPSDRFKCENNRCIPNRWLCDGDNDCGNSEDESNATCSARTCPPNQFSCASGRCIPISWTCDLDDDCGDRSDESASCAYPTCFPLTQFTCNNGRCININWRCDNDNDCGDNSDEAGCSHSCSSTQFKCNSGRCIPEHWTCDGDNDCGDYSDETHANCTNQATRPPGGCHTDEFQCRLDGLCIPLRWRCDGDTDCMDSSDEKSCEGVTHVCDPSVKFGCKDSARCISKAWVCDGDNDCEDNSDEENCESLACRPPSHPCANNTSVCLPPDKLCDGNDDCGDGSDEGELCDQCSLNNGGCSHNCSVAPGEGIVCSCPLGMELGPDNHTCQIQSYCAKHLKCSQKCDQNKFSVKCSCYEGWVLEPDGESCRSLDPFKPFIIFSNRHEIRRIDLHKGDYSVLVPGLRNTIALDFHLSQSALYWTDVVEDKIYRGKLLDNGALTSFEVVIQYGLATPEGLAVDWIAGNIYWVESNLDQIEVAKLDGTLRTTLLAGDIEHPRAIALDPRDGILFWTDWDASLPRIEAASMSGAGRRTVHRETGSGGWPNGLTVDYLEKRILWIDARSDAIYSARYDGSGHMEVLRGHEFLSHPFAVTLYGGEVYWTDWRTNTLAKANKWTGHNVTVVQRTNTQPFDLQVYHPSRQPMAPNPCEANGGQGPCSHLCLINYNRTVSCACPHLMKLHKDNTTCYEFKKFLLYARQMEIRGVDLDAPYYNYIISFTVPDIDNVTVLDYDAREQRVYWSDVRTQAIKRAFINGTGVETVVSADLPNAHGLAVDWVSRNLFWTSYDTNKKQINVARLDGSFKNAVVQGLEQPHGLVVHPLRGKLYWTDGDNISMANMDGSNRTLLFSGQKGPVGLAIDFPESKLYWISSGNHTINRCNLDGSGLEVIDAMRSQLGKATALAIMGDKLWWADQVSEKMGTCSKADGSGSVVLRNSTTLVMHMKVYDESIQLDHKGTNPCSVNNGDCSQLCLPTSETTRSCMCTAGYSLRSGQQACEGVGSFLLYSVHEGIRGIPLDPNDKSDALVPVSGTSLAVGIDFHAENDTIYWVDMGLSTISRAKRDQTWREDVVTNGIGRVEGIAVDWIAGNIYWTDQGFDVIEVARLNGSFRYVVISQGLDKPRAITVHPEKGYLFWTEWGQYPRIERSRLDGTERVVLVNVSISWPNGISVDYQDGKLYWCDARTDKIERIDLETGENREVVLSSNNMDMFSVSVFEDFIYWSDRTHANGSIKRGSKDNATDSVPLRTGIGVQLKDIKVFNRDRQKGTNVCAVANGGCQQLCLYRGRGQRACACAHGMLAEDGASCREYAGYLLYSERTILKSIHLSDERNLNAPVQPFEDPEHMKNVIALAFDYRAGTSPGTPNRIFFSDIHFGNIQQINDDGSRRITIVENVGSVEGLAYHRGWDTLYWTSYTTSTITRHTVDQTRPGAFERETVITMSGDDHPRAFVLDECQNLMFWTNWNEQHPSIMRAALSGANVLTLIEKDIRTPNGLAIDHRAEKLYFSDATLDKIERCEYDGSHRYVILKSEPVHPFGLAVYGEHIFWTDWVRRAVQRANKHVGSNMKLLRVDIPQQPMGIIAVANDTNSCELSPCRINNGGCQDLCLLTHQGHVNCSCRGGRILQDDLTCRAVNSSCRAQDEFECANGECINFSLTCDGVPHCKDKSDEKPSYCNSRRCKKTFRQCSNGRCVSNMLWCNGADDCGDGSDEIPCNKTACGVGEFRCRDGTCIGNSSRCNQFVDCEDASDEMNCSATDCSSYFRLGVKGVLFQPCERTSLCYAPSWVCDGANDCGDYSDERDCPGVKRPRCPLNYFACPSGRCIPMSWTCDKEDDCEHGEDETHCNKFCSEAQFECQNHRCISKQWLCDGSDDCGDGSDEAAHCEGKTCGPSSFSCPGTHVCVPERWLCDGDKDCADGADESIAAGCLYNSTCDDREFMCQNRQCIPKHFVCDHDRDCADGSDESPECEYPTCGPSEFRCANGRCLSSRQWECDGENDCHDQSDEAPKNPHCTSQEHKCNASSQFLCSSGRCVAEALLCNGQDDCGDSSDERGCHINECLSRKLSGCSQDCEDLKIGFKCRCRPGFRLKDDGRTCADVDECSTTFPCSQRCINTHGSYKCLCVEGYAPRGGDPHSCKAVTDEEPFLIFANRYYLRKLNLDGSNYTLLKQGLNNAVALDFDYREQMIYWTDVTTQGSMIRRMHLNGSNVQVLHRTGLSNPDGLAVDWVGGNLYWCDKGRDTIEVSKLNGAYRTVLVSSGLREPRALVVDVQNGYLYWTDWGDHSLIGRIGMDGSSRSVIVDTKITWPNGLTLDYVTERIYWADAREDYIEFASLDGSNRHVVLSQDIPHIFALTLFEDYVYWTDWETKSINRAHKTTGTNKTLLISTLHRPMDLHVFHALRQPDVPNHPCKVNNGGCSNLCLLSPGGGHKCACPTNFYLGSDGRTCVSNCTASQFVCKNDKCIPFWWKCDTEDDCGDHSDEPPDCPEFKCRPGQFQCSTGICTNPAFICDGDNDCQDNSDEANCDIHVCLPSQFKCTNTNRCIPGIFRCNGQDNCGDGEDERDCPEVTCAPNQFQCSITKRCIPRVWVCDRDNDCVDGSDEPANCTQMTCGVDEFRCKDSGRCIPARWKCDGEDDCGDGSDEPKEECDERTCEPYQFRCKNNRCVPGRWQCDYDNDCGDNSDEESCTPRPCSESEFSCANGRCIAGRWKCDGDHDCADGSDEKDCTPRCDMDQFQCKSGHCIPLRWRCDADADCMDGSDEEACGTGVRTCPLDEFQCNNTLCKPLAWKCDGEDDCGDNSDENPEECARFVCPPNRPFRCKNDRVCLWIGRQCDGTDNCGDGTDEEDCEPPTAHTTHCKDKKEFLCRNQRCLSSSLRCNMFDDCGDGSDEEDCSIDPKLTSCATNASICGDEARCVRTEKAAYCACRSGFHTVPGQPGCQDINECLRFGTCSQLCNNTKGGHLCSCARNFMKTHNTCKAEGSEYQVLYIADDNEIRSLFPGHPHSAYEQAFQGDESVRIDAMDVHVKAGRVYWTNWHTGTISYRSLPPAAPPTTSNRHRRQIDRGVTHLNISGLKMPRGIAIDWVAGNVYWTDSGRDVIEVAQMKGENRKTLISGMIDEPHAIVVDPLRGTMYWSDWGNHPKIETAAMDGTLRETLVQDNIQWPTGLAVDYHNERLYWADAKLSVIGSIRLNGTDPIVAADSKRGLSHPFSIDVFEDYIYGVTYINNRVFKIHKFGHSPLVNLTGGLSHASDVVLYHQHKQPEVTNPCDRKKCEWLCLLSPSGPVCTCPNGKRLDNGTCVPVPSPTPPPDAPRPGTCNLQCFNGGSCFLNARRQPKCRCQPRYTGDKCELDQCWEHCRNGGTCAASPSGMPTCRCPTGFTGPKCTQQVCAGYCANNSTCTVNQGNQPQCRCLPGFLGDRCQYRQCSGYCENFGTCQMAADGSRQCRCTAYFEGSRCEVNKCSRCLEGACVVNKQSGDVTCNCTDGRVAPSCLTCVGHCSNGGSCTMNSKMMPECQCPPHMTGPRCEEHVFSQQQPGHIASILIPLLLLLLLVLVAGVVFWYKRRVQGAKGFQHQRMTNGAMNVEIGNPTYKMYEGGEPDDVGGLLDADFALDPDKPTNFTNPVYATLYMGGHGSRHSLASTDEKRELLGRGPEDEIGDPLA
T1 sequence (P08254 100-272, stated change not applied): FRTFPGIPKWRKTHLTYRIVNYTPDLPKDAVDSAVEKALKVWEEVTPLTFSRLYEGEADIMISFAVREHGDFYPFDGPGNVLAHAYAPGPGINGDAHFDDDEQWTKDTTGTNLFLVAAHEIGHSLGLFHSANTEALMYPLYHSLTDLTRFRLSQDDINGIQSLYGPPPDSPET

B1: TIMP-3 K22A/K110A, C-terminally FLAG-tagged (natural protein)
chain: CTCSPSHPQDAFCNSDIVIRAAVVGKKLVKEGPFGTLVYTIKQMKMYRGFTKMPHVQYIHTEASESLCGLKLEVNKYQYLLTGRVYDGKMYTGLCNFVERWDQLTLSQRAGLNYRYHLGCNCKIKSCYYLPCFVTSKNECLWTDMLSNFGYPGYQSKHYACIRQKGGYCSWYRGWAPPDKSIINATDP
With B1 the percentage remaining in the medium of HTB94 chondrosarcoma cells after 24 h (1 nM, anti-FLAG immunoblot and densitometry) [1] was > 50%.

B2: TIMP-3 K157A, C-terminally FLAG-tagged (natural protein)
chain: CTCSPSHPQDAFCNSDIVIRAKVVGKKLVKEGPFGTLVYTIKQMKMYRGFTKMPHVQYIHTEASESLCGLKLEVNKYQYLLTGRVYDGKMYTGLCNFVERWDQLTLSQRKGLNYRYHLGCNCKIKSCYYLPCFVTSKNECLWTDMLSNFGYPGYQSAHYACIRQKGGYCSWYRGWAPPDKSIINATDP
In the case of B2, the half-life of loss from the medium of HTB94 chondrosarcoma cells (1 nM, 0-24 h, anti-FLAG immunoblot and densitometry) [2] is reported as 7.8 h.

B3: TIMP-3 K45A/K89A, C-terminally FLAG-tagged (natural protein)
chain: CTCSPSHPQDAFCNSDIVIRAKVVGKKLVKEGPFGTLVYTIKQMAMYRGFTKMPHVQYIHTEASESLCGLKLEVNKYQYLLTGRVYDGAMYTGLCNFVERWDQLTLSQRKGLNYRYHLGCNCKIKSCYYLPCFVTSKNECLWTDMLSNFGYPGYQSKHYACIRQKGGYCSWYRGWAPPDKSIINATDP
With B3 the percentage remaining in the medium of HTB94 chondrosarcoma cells after 24 h (1 nM, anti-FLAG immunoblot and densitometry) [1] was > 50%.

B4: TIMP-3 K30A/K52A, C-terminally FLAG-tagged (natural protein)
chain: CTCSPSHPQDAFCNSDIVIRAKVVGKKLVAEGPFGTLVYTIKQMKMYRGFTAMPHVQYIHTEASESLCGLKLEVNKYQYLLTGRVYDGKMYTGLCNFVERWDQLTLSQRKGLNYRYHLGCNCKIKSCYYLPCFVTSKNECLWTDMLSNFGYPGYQSKHYACIRQKGGYCSWYRGWAPPDKSIINATDP
In the case of B4, the percentage remaining in the medium of HTB94 chondrosarcoma cells after 24 h (1 nM, anti-FLAG immunoblot and densitometry) [1] is reported as > 50%.

B5: TIMP-3 K30A/K76A, C-terminally FLAG-tagged (natural protein)
chain: CTCSPSHPQDAFCNSDIVIRAKVVGKKLVAEGPFGTLVYTIKQMKMYRGFTKMPHVQYIHTEASESLCGLKLEVNAYQYLLTGRVYDGKMYTGLCNFVERWDQLTLSQRKGLNYRYHLGCNCKIKSCYYLPCFVTSKNECLWTDMLSNFGYPGYQSKHYACIRQKGGYCSWYRGWAPPDKSIINATDP
For B5, the percentage remaining in the medium of HTB94 chondrosarcoma cells after 24 h (1 nM, anti-FLAG immunoblot and densitometry) [1] was > 50%.

B6: TIMP-3 K42A/K157A, C-terminally FLAG-tagged (natural protein)
chain: CTCSPSHPQDAFCNSDIVIRAKVVGKKLVKEGPFGTLVYTIAQMKMYRGFTKMPHVQYIHTEASESLCGLKLEVNKYQYLLTGRVYDGKMYTGLCNFVERWDQLTLSQRKGLNYRYHLGCNCKIKSCYYLPCFVTSKNECLWTDMLSNFGYPGYQSAHYACIRQKGGYCSWYRGWAPPDKSIINATDP
B6 was tested, and the percentage remaining in the medium of HTB94 chondrosarcoma cells after 24 h (1 nM, anti-FLAG immunoblot and densitometry) [1] was > 50%.

B7: TIMP-3 K71A/K157A, C-terminally FLAG-tagged (natural protein)
chain: CTCSPSHPQDAFCNSDIVIRAKVVGKKLVKEGPFGTLVYTIKQMKMYRGFTKMPHVQYIHTEASESLCGLALEVNKYQYLLTGRVYDGKMYTGLCNFVERWDQLTLSQRKGLNYRYHLGCNCKIKSCYYLPCFVTSKNECLWTDMLSNFGYPGYQSAHYACIRQKGGYCSWYRGWAPPDKSIINATDP
With B7 the percentage remaining in the medium of HTB94 chondrosarcoma cells after 24 h (1 nM, anti-FLAG immunoblot and densitometry) [1] was > 50%.

B8: TIMP-3 K27A/K45A, C-terminally FLAG-tagged (natural protein)
chain: CTCSPSHPQDAFCNSDIVIRAKVVGKALVKEGPFGTLVYTIKQMAMYRGFTKMPHVQYIHTEASESLCGLKLEVNKYQYLLTGRVYDGKMYTGLCNFVERWDQLTLSQRKGLNYRYHLGCNCKIKSCYYLPCFVTSKNECLWTDMLSNFGYPGYQSKHYACIRQKGGYCSWYRGWAPPDKSIINATDP
For B8, the percentage remaining in the medium of HTB94 chondrosarcoma cells after 24 h (1 nM, anti-FLAG immunoblot and densitometry) [1] was > 50%.

B9: TIMP-3 K42A, C-terminally FLAG-tagged (natural protein)
chain: CTCSPSHPQDAFCNSDIVIRAKVVGKKLVKEGPFGTLVYTIAQMKMYRGFTKMPHVQYIHTEASESLCGLKLEVNKYQYLLTGRVYDGKMYTGLCNFVERWDQLTLSQRKGLNYRYHLGCNCKIKSCYYLPCFVTSKNECLWTDMLSNFGYPGYQSKHYACIRQKGGYCSWYRGWAPPDKSIINATDP
B9 showed a half-life of loss from the medium of HTB94 chondrosarcoma cells (1 nM, 0-24 h, anti-FLAG immunoblot and densitometry) [2] of 8.8 h.

B10: TIMP-3 K71A, C-terminally FLAG-tagged (natural protein)
chain: CTCSPSHPQDAFCNSDIVIRAKVVGKKLVKEGPFGTLVYTIKQMKMYRGFTKMPHVQYIHTEASESLCGLALEVNKYQYLLTGRVYDGKMYTGLCNFVERWDQLTLSQRKGLNYRYHLGCNCKIKSCYYLPCFVTSKNECLWTDMLSNFGYPGYQSKHYACIRQKGGYCSWYRGWAPPDKSIINATDP
Binder B10 has a half-life of loss from the medium of HTB94 chondrosarcoma cells (1 nM, 0-24 h, anti-FLAG immunoblot and densitometry) [2] of 12.9 h.

B11: TIMP-3 K22A/K157A, C-terminally FLAG-tagged (natural protein)
chain: CTCSPSHPQDAFCNSDIVIRAAVVGKKLVKEGPFGTLVYTIKQMKMYRGFTKMPHVQYIHTEASESLCGLKLEVNKYQYLLTGRVYDGKMYTGLCNFVERWDQLTLSQRKGLNYRYHLGCNCKIKSCYYLPCFVTSKNECLWTDMLSNFGYPGYQSAHYACIRQKGGYCSWYRGWAPPDKSIINATDP
In the case of B11, the percentage remaining in the medium of HTB94 chondrosarcoma cells after 24 h (1 nM, anti-FLAG immunoblot and densitometry) [1] is reported as > 50%.

B12: TIMP-3 K26A/K45A, C-terminally FLAG-tagged (natural protein, UniProt P35625 24-211, looked up)
chain: CTCSPSHPQDAFCNSDIVIRAKVVGAKLVKEGPFGTLVYTIKQMAMYRGFTKMPHVQYIHTEASESLCGLKLEVNKYQYLLTGRVYDGKMYTGLCNFVERWDQLTLSQRKGLNYRYHLGCNCKIKSCYYLPCFVTSKNECLWTDMLSNFGYPGYQSKHYACIRQKGGYCSWYRGWAPPDKSIINATDP
notes: TIMP-3, secreted into the conditioned medium; source: for the screen also transiently transfected, conditioned medium dialyzed against TBS; not shown: FLAG, C-terminal, kept
With B12 the Ki [3] was 0.92 nM, the Ki [4] was 0.63 nM and the Ki [5] was 0.95 nM. For the same binder, the Ki [6] was 0.52 nM, the Ki [7] was 0.12 nM and the Ki (ADAM17 ectodomain) was 3.78 nM.

From publication PMC5063997, “Engineered Tissue Inhibitor of Metalloproteinases-3 Variants Resistant to Endocytosis Have Prolonged Chondroprotective Activity*” (The Journal of Biological Chemistry, 2016)
